Data from patent US20250270304A1 (PHENOMIC AI, published 2025).

Experiments:
Inhibin B = biological target: T1, Inhibin B (Homo sapiens (Human), UniProt P05111 233-366; P09529 293-407); assay: the assays described above
T1 sequence 1: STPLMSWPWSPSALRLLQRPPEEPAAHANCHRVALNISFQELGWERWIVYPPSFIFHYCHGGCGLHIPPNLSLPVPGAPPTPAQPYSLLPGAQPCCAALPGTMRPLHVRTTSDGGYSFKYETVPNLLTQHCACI
T1 sequence 2: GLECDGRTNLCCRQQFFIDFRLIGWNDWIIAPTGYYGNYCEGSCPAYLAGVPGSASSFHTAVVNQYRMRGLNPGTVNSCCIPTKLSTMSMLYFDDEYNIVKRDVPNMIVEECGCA

Latent Activin A [1] = biological target: T2, Latent Activin A (human, UniProt P08476 21-426, limits assumed); assay: ELISA, coated antigen, OD450
T2 construct: also called INHBA latent
T2 sequence: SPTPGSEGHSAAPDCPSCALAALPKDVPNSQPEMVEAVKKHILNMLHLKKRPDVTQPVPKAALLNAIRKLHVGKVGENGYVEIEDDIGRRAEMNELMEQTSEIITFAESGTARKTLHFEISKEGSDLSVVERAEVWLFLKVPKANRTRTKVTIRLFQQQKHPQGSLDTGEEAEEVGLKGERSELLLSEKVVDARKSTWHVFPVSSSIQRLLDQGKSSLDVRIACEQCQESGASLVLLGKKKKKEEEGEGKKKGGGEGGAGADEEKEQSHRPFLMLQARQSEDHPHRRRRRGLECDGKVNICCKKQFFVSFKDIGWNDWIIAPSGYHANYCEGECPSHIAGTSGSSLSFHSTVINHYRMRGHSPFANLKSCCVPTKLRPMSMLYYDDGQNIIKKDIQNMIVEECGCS

Mature Activin A [2] = biological target: T3, Mature Activin A (human, UniProt P08476 311-426); assay: ELISA, coated antigen, OD450
T3 construct: also called active Activin A; INHBA mature
T3 sequence: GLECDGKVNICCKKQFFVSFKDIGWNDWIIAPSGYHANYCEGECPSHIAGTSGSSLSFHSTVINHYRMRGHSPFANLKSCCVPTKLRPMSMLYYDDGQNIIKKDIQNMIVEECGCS

Inhibin A [3] = biological target: T4, Inhibin A (Homo sapiens (Human), UniProt P05111 233-366; P08476 311-426); assay: ELISA, coated antigen, OD450
T4 sequence 1: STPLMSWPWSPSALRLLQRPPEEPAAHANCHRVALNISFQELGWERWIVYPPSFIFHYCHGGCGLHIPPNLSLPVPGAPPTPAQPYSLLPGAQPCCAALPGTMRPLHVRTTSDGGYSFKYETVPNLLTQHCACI
T4 sequence 2: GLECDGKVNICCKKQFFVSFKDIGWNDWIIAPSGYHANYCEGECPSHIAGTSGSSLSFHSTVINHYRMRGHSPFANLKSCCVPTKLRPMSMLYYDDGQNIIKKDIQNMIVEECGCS

Latent Activin A [4] = biological target: T2, Latent Activin A; assay: ELISA dose-response, coated antigen
Description: (§1) Antibodies were re-expressed in 40 mL cultures of Expi293 cells and purified using protein G magnetic sepharose beads (Cytiva, Marlborough, MA) to provide larger quantities for secondary screening. Secondary screening included dose responses in both functional assays described above (SMAD nuclear localization and fibroblast activations assays) as well as in binding assays to the same antigens listed in Table 3. Plates were coated with 25 μL of 3 μg/mL antigen in 384-well Maxisorp plates overnight at 4° C. with agitation. The next day, the samples in the plates were blocked with 70 μL blocking buffer (PBS+1% BSA+0.1% Tween-20) for 2 hours at room temperature. Plates were then washed three times with 100 μL of wash buffer (PBS+0.1% Tween-20). Primary antibodies in Expi293 expression medium were diluted 1:3 in blocking buffer, 25 μL added per well, and the plates were incubated for an hour at room temperature with agitation. Plates were then washed three times and 25 μL of secondary antibody (goat anti-Human IgG, HRP conjugated; Jackson Immunoresearch) diluted 1:5000 in blocking buffer was added for 30 minutes at room temperature. The wells in the plates were washed six times with wash buffer and TMB substrate was added followed by 1 M H3PO4.

Mature Activin A [5] = biological target: T3, Mature Activin A; assay: ELISA dose-response, coated antigen
Description: as §1

Inhibin A [6] = biological target: T4, Inhibin A; assay: ELISA dose-response, coated antigen (row 'Inhibin')
Description: as §1

Activin B [7] = biological target: T5, Activin B (Homo sapiens (Human), UniProt P09529 293-407); assay: ELISA, coated antigen, OD450; secondary screen, single OD 450 reading as fold over negative control; below the 1.40-fold cut-off
T5 construct: also called Mature Activin B; mature Activin B
T5 sequence: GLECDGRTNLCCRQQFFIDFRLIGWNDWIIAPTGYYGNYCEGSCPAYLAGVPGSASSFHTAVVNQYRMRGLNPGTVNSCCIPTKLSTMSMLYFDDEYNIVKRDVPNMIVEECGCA
Description: as §1

Activin B [8] = biological target: T5, Activin B; assay: ELISA, coated antigen, OD450; secondary screen, single OD 450 reading as fold over negative control; below the 1.40-fold cut-off, so not a binder
Description: as §1

Latent Activin A [9] = biological target: T2, Latent Activin A; assay: ELISA, coated antigen, OD450; negative control antibody
Description: as §1

Mature Activin A [10] = biological target: T3, Mature Activin A; assay: as above
Description: as §1

Activin B [11] = biological target: T5, Activin B; assay: as above
Description: as §1

Inhibin A [12] = biological target: T4, Inhibin A; assay: as above
Description: as §1

B1: Control 1 (antibody, V domains shown)
VH: QVQLVQSGAEVKKPGASVKVSCKASGYTFTSYGLSWVRQAPGQGLEWMGWIIPYNGNTNSAQKLQGRVTMTTDTSTSTAYMELRSLRSDDTAVYFCARDRDYGVNYDAFDIWGQGTMVTVSS
VL: not shown
notes: also called AMGA1; Amga1
binding result (Inhibin B): no binding | fold-change of OD 450 over negative control (BSA) (Latent Activin A [1]): 18.7 fold | fold-change of OD 450 over negative control (BSA) (Mature Activin A [2]): 16.3 fold | fold-change of OD 450 over negative control (BSA) (Inhibin A [3]): 11.7 fold | EC50 (Latent Activin A [4]): 0.03 nM | EC50 (Mature Activin A [5]): 0.03 nM | EC50 (Inhibin A [6]): 0.02 nM | fold-change of OD 450 over negative control (BSA) (Activin B [7]): 0.57 fold

B2: AB342 (antibody, IgG1, V domains shown)
VH: EVQLVESGGGLVQPGGSLRLSCAASGFDFGEHWMSWVRQAPGKGLELVASIKGDASDTYYPDSVKGRFTISRDNAKNSLYLQMNSLRAEDTAVYYCVKDLSKQWLGIDYWGQGTLVTVSS
VL: DIVMTQSPLSLPVTPGEPASISCRSSQSLLHSNEKNYLHWYLQKPGQSPQLLIYDASKRASGVPDRFSGSGSGTDFTLKISRVEAEDVGVYYCVQDLHTPFTFGGGTKVEIK
fold-change of OD 450 over negative control (BSA) (Latent Activin A [1]): 7 fold | fold-change of OD 450 over negative control (BSA) (Mature Activin A [2]): 7.81 fold | fold-change of OD 450 over negative control (BSA) (Inhibin A [3]): 0.36 fold | EC50 (Latent Activin A [4]): 48.6 nM | EC50 (Mature Activin A [5]): 4.89 nM | fold-change of OD 450 over negative control (BSA) (Activin B [8]): 0.43 fold

B3: Control 3 (antibody, human IgG1, kappa, V domains shown)
VH: QVTLRESGPALVKPTQTLTLTCTFSGFSLSTSGMSVGWIRQPPGKALEWLADIWWDDKKDYNPSLKSRLTISKDTSKNQVVLKVTNMDPADTATYYCARSMITNWYFDVWGAGTTVTVSS
VL: DIQMTQSPSTLSASVGDRVTITCKCQLSVGYMHWYQQKPGKAPKLLIYDTSKLASGVPSRFSGSGSGTEFTLTISSLQPDDFATYYCFQGSGYPFTFGGGTKLEIKR
notes: Negative control antibody; also called palivizumab
binding result (Latent Activin A [9]): no binding | binding result (Mature Activin A [10]): no binding | binding result (Activin B [11]): no binding | binding result (Inhibin A [12]): no binding
